Measurements: patent publication US20220282217A1 (BIONTECH US, published 2022)
Values belong to the binder of their own block, whether it stands above or below them.

What was measured:
[1] = biological target: HLA-A02.01 (human); experiment: pMHC-I complex dissociation at 37 C, 125I-b2m, half-life
How it was run: (§1)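 Biotinylated MHC-I heavy chain made in E. coli, captured on streptavidin plates and complexed with peptide and radiolabelled light chain. Dissociation started with excess unlabelled light chain at 37 °C. Stability is the half-life in hours from scintillation counts.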

[2] = biological target: T1, HLA-B07.02 (human); experiment: as above
T1 construct: As for HLA-A02.01
How it was run: as §1

[3] = biological target: T1, HLA-B07.02; experiment: competition vs radiolabeled reference peptide on purified MHC I, gel filtration
Protocol: (§2) Peptides were incubated at varying concentrations with these complexes for 2 days, and the amount of remaining radiolabeled peptide bound to […] was measured using size exclusion gel-filtration.

[4] = biological target: T2, HLA class I molecule A02.01; experiment: pMHC-I dissociation half-life, 125I-b2m
T2 construct: Purified MHC class I complex; also called HLA-A02:01
How it was run: as §1

[5] = biological target: T3, HLA class I molecule B08.01; experiment: pMHC-I dissociation half-life, 125I-b2m
T3 construct: Purified MHC class I complex; also called HLA-B08:01
How it was run: as §1

[6] = biological target: T2, HLA class I molecule A02.01; experiment: competition with radiolabeled reference peptide on purified MHC I
Protocol: as §2

[7] = biological target: T3, HLA class I molecule B08.01; experiment: as above
Protocol: as §2

[8] = biological target: T4, HLA-A01:01 class I MHC molecule (human); experiment: pMHC-I dissociation at 37 C, 125I-labeled b2m, scintillation counts
T4 construct: heavy chain biotinylated and made in E. coli in the stability assay
Protocol: (§3) Briefly, synthetic genes encoding biotinylated MHC-I heavy and light chains are expressed in E. coli and purified from inclusion bodies using standard methods. […] These reactions are carried out in streptavidin coated microplates to bind the biotinylated MHC-I heavy chains to the surface and allow measurement of radiolabeled light chain to monitor complex formation. Dissociation is initiated by addition of higher concentrations of unlabeled light-chain and incubation at 37° C. Stability is defined as the length of time in hours it takes for half of the complexes to dissociate, as measured by scintillation counts.

[9] = biological target: HLA-A03:01 class I MHC molecule (human); experiment: as above
Protocol: as §3

[10] = biological target: T4, HLA-A01:01 class I MHC molecule; experiment: competition with a radiolabeled reference peptide for purified MHC I, gel filtration; 'Affinity (nM)'
Protocol: as §2

[11] = biological target: HLA-A03:01 class I MHC molecule (human); experiment: as above
Protocol: as §2

[12] = biological target: HLA-A11:01 class I MHC molecule (human); experiment: competition with a radiolabeled reference peptide for purified MHC I, gel filtration; 'Affinity (nM)'; affinity assay, column 'Affinity (nM)'
Protocol: as §2

[13] = biological target: HLA-A24:02 class I MHC molecule (human); experiment: pMHC-I dissociation at 37 C, 125I-labeled b2m, scintillation counts
Protocol: as §3

[14] = biological target: HLA-A24:02 class I MHC molecule (human); experiment: competition with a radiolabeled reference peptide for purified MHC I, gel filtration; 'Affinity (nM)'
Protocol: as §2

[15] = biological target: T5, HLA-A02.01 (human); experiment: pMHC-I dissociation half-life, 125I-b2m
T5 construct: Purified class I MHC
How it was run: as §1

[16] = biological target: T6, HLA-B08.01 (human); experiment: pMHC-I dissociation half-life, 125I-b2m
T6 construct: Purified class I MHC
How it was run: as §1

[17] = biological target: T7, HLA-B07.02 (human); experiment: pMHC-I dissociation half-life, 125I-b2m
T7 construct: Purified class I MHC
How it was run: as §1

[18] = biological target: T8, HLA-A03.01 (human); experiment: pMHC-I dissociation half-life, 125I-b2m
T8 construct: Purified class I MHC
How it was run: as §1

[19] = biological target: T6, HLA-B08.01; experiment: competition with radiolabeled reference peptide, purified MHC I
Protocol: as §2

[20] = biological target: T7, HLA-B07.02; experiment: as above
Protocol: as §2

[21] = biological target: T8, HLA-A03.01; experiment: as above
Protocol: as §2

[22] = biological target: T9, HLA class I molecule A03.01; experiment: competition with radiolabeled reference peptide on purified MHC I
T9 construct: Purified MHC class I complex; also called HLA-A03:01
Protocol: as §2

[23] = biological target: T9, HLA class I molecule A03.01; experiment: pMHC-I dissociation assay with 125I-labeled beta2m light chain at 37 C, scintillation counts; time in hours for half of the complexes to dissociate
Protocol: as §3

[24] = biological target: T10, HLA-A11.01 (human); experiment: as above
T10 construct: Purified class I MHC
Protocol: as §3

[25] = biological target: T10, HLA-A11.01; experiment: competition binding assay with purified class I MHC: test peptide at varying concentrations displaces a radiolabeled reference peptide, read by size exclusion gel filtration; column 'Observed MHC Affinity (nM)'
Protocol: as §2

[26] = biological target: T11, HLA-A02.01 class I MHC molecule (prepared complex) (human); experiment: dissociation of peptide-MHC-I complex at 37 C, 125I-labelled b2m, scintillation
Protocol: as §3

[27] = biological target: T11, HLA-A02.01 class I MHC molecule …; experiment: displacement of radiolabeled reference peptide from class I MHC, gel filtration; 'Affinity (nM)'
Protocol: as §2

[28] = biological target: HLA-B08:01 class I MHC molecule (human); experiment: pMHC-I dissociation at 37 C, 125I-labeled b2m, scintillation counts
Protocol: as §3

[29] = biological target: HLA-B08:01 class I MHC molecule (human); experiment: competition with a radiolabeled reference peptide for purified MHC I, gel filtration; 'Affinity (nM)'
Protocol: as §2

[30] = biological target: T9, HLA class I molecule A03.01; experiment: pMHC-I dissociation half-life, 125I-b2m
How it was run: as §1

[31] = biological target: T12, HLA-A03.01 (human); experiment: pMHC-I complex dissociation at 37 C, 125I-b2m, half-life
T12 construct: As for HLA-A02.01
How it was run: as §1

[32] = biological target: HLA-A02.01 (human); experiment: competition vs radiolabeled reference peptide on purified MHC I, gel filtration
Protocol: as §2

[33] = biological target: T12, HLA-A03.01; experiment: as above
Protocol: as §2

[34] = biological target: T13, HLA-A24.02 (human); experiment: pMHC-I dissociation half-life, 125I-b2m
T13 construct: Purified class I MHC
How it was run: as §1

[35] = biological target: T5, HLA-A02.01; experiment: competition with radiolabeled reference peptide, purified MHC I
Protocol: as §2

[36] = biological target: T13, HLA-A24.02; experiment: as above
Protocol: as §2

[37] = biological target: T2, HLA class I molecule A02.01; experiment: competition binding assay with purified class I MHC: test peptide at varying concentrations displaces a radiolabeled reference peptide, read by size exclusion gel filtration; column 'Observed MHC Affinity (nM)'
Protocol: as §2

B1: KLSDSRTAL (peptide)
peptide: KLSDSRTAL
notes: also called FRG1B, I1OT (so in the source); FRG1B, I10T
Stability (T1/2 (h)) [1]: 2.8 h | Stability (T1/2 (h)) [2]: 6.8 h | IC50 [3]: 9 nM

Binder: YQQQQQSDL (also called MYC, E39D)
Stability (T1/2 (h)) [4]: 0.4 h | Stability (T1/2 (h)) [5]: 0 h | IC50 [6]: 799 nM | IC50 [7]: 18900 nM

Binder: EYMANGSLL [BTK, C481S peptide EYMANGSLL]
Stability (half-life (hr.)) [13]: 5.72 h | IC50 [14]: 4.96 nM

Binder: KLMLLRLNL (also called SEC31A(-1))
Stability (T1/2 (h)) [15]: 16.9 h | Stability (T1/2 (h)) [16]: 0 h | Stability (T1/2 (h)) [17]: 1.5 h | Stability (T1/2 (h)) [18]: 0 h | IC50 [19]: 58.4 nM | IC50 [20]: 133 nM | IC50 [21]: 210 nM

Binder: SLLNYLREM [BTK_C481S peptide SLLNYLREM]
Stability (half-life (hr.)) [28]: 0 h | IC50 [29]: 960 nM

Binder: KVSRENTSPK (also called HER2, L7555)
Stability (T1/2 (h)) [30]: 13.5 h | IC50 [22]: 7 nM

Now from value to binder:

Stability (half-life (hr.)) [8]: 0.866 h | Stability (half-life (hr.)) [9]: 0.279 h | IC50 [10]: 13.2 nM | IC50 [11]: 95.9 nM | IC50 [12]: 974 nM
Binder: YMANGSLLNY [BTK, C481S peptide YMANGSLLNY]

IC50 [22]: 2.5 nM | Observed MHC Stability [23]: 5.6 h | Observed MHC Stability [24]: 8.9 h | IC50 [25]: 23 nM
Binder: KIMFATLQR (also called GATA3 . . ; CSNH)

Stability (half-life (hr.)) [26]: 0.381 h | IC50 [27]: 132 nM
B2: EGFR_T790M peptide LIMQLMPFGC (peptide)
peptide: LIMQLMPFGC
notes: synthetic peptide holding the EGFR T790M mutation

Stability (T1/2 (h)) [1]: 14.3 h | Stability (T1/2 (h)) [31]: 0.8 h | IC50 [32]: 6 nM | IC50 [33]: 308 nM
Binder: KLFSCLSFL (also called C15ORF40(+1))

Stability (T1/2 (h)) [15]: 0.4 h | Stability (T1/2 (h)) [34]: 0 h | IC50 [35]: 1030 nM | IC50 [36]: 44900 nM
Binder: MNWRPILTII (also called TP53, R248W)

Stability (T1/2 (h)) [4]: 21.7 h | IC50 [37]: 14 nM
Binder: SMLTGPPARV (also called GATA3 . . ; CSNH)
